The values that follow come from IntAct's records for PubMed 22913516.

The target in this experiment is kcc2b_mouse Camk2b (UniProt P28652).
Sequence of kcc2b_mouse Camk2b (P28652 whole entry): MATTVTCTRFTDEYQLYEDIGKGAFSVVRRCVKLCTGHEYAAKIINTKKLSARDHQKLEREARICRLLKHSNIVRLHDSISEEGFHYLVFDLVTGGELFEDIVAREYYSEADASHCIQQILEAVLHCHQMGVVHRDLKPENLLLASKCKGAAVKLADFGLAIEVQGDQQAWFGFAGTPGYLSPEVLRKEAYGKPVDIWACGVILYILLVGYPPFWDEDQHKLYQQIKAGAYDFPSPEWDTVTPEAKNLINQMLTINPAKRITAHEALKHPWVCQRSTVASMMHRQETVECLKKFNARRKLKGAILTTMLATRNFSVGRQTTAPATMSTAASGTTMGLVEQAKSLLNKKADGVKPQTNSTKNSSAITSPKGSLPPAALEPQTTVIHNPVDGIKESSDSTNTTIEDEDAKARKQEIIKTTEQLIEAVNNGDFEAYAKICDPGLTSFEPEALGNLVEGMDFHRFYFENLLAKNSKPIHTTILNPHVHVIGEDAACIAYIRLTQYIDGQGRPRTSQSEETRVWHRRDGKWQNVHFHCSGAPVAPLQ

For “Ryanodine receptor 1 (Oryctolagus cuniculus (Rabbit)), P11716 S2843A”, the “effect of a mutation on the interaction” value is recorded as “decreasing interaction”.
